What was measured:
[1] = biological target: PaSOD-2 (Cys-less CuZnSOD from Paenibacillus lautus NBRC 15380, WP_246059286.1 without the predicted signal peptide) (Paenibacillus lautus NBRC 15380); test: SEC-MALS; apo form; 20 μM protein in MN buffer (50 mM Mops, 100 mM NaCl, pH 7.0); Cosmosil 5Diol-300-II column, miniDAWN TREOS
[2] = biological target: PaSOD-2 (Cys-less CuZnSOD from Paenibacillus lautus NBRC 15380, WP_246059286.1 without the predicted signal peptide) (Paenibacillus lautus NBRC 15380); test: SEC-MALS; holo form (copper and zinc bound); 20 μM protein in MN buffer (50 mM Mops, 100 mM NaCl, pH 7.0); Cosmosil 5Diol-300-II column, miniDAWN TREOS
[3] = biological target: PaSOD-1 (Cys-less CuZnSOD from Paenibacillus lautus NBRC 15380, WP_246059278.1 without the predicted signal peptide) (Paenibacillus lautus NBRC 15380); test: SEC-MALS; apo form; 20 μM protein in MN buffer (50 mM Mops, 100 mM NaCl, pH 7.0); Cosmosil 5Diol-300-II column, miniDAWN TREOS
[4] = biological target: PaSOD-1 (Cys-less CuZnSOD from Paenibacillus lautus NBRC 15380, WP_246059278.1 without the predicted signal peptide) (Paenibacillus lautus NBRC 15380); test: SEC-MALS; holo form (copper and zinc bound); 20 μM protein in MN buffer (50 mM Mops, 100 mM NaCl, pH 7.0); Cosmosil 5Diol-300-II column, miniDAWN TREOS

“PaSOD-2 (Cys-less CuZnSOD from Paenibacillus lautus NBRC 15380, WP_246059286.1 without the predicted signal peptide) (enzyme)” showed a stoichiometry N [1] of 2 and a stoichiometry N [2] of 2.
In the case of “PaSOD-1 (Cys-less CuZnSOD from Paenibacillus lautus NBRC 15380, WP_246059278.1 without the predicted signal peptide) (enzyme)”, the stoichiometry N [3] was 2 and the stoichiometry N [4] was 2.
